From a protein production outcome set (Wang et al. 2014) come the findings set out here.

A short description of this data set: label from the status in PepcDB records.

In the case of “MSVPAIAPRRKRLADGLSVTQKVFVRSRNGGATKIVREHYLRSDIPCLSRSCTKCPQIVVPDAQNELPKFILSDSPLELSAPIGKHYVVLDTNVVLQAIDLLENPNCFFDVIVPQIVLDEVRNKSYPVYTRLRTLCRDSDDHKRFIVFHNEFSEHTFVERLPNETINDRNDRAIRKTCQWYSEHLKPYDINVVLVTNDRLNREAATKEVESNIITKSLVQYIELLPNADDIRDSIPQMDSFDKDLERDTFSDFTFPEYYSTARVMGGLKNGVLYQGNIQISEYNFLEGSVSLPRFSKPVLIVGQKNLNRAFNGDQVIVELLPQSEWKAPSSIVLDSEHFDVNDNPDIEAGDDDDNNESSSNTTVISDKQRRLLAKDAMIAQRSKKIQPTAKVVYIQRRSWRQYVGQLAPSSVDPQSSSTQNVFVILMDKCLPKVRIRTRRAAELLDKRIVISIDSWPTTHKYPLGHFVRDLGTIESAQAETEALLLEHDVEYRPFSKKVLECLPAEGHDWKAPTKLDDPEAVSKDPLLTKRKDLRDKLICSIDPPGCVDIDDALHAKKLPNGNWEVGVHIADVTHFVKPGTALDAEGAARGTSVYLVDKRIDMLPMLLGTDLCSLKPYVDRFAFSVIWELDDSANIVNVNFMKSVIRSREAFSYEQAQLRIDDKTQNDELTMGMRALLKLSVKLKQKRLEAGALNLASPEVKVHMDSETSDPNEVEIKKLLATNSLVEEFMLLANISVARKIYDAFPQTAMLRRHAAPPSTNFEILNEMLNTRKNMSISLESSKALADSLDRCVDPEDPYFNTLVRIMSTRCMMAAQYFYSGAYSYPDFRHYGLAVDIYTHFTSPIRRYCDVVAHRQLAGAIGYEPLSLTHRDKNKMDMICRNINRKHRNAQFAGRASIEYYVGQVMRNNESTETGYVIKVFNNGIVVLVPKFGVEGLIRLDNLTEDPNSAAFDEVEYKLTFVPTNSDKPRDVYVFDKVEVQVRSVMDPITSKRKAELLLK”, the protein production entry is recorded as “failed”.

As for “MSVPGPSSPDGALTRPPYCLEAGEPTPGLSDTSPDEGLIEDLTIEDKAVEQLAEGLLSHYLPDLQRSKQALQELTQNQVVLLDTLEQEISKFKECHSMLDINALFAEAKHYHAKLVNIRKEMLMLHEKTSKLKKRALKLQQKRQKEELEREQQREKEFEREKQLTARPAKRM”, the protein production entry is on record as “failed”.

For the sequence “MSVPQRPHQFVLTLSCPSAAGQVAAVVGLLDRHRCYVDELTVFDDDLSARFFVRCVFHATDDADALRVDALRREFEPIAERFRMQWAIHDVAARPKVLIMVSKLEHCLADLLFRWKMGELKMDIVGIVSNHPDFAPLAAQHGLPFRHFPITADTKAQQEAQWLDVFETSGAELVILARYMQVLSPEASARLANRAINIHHSFLPGFKGAKPYHQAHARGVKLIGATAHFVTDDLDEGPIIEQVVERVDHSYRPEQLLAVGRDVECITLARAVKAFIERRVFLNGDRTVVFQ”, the protein production entry is “not failed”.

In the case of “MSVRDLIPWSRGGGPAPSIYRGDDMDPFLSLHRNVNRLFDEVFRGFDTPSVLGRMAPLNGTWPGVEFSETDEEIRLTAEIPGLDENDVEVMLDDGVLTLRGEKKAETEDKDRQFSERYYGRFERRFGLGREVEDDKVAATFKNGVLTVTLPKTKRAQANAKRIAINGNK”, the protein production result is “failed”.

Consider “MSVRVYIGNLPRDIEQAELDAVFAEAGEVSAKLVTDRKTGKSRGFAFATVASDELADALIERFNGTEVQGSTLKLEKAQPRERDNEGGNNRRRSGGGGNDNRRSGKSAPRVISSGPEGFQPDPRWAQELEKLKELLAAQTVS”, for which the protein production entry was “failed”.

For “MSVSIILMGLFVGALVGLTGVGGAALLTPLLIVLGINPSIAVGTDLVYNSITKLFGVASHWRQKTINFKLVKYLAIGSIPSASLAIGILHLFPAFHQHQEEIIKHALGYVLTLVAISIIVRLFLDRKLRPNRWQLMPLENKRALTILIGVVFGFIVGLTSIGSGSLFAIAMIYLFNMKASQIVGTDIAHAFLLVTAAGILNASFGSVDYMLAANLLLGSIPGVLIGSHLSPRFSPRPLQFIMASIILVSGLKLI”, the protein production result is “failed”.

Consider “MSVSVRSYLSPTLVLLAFDWPDAQRRDDFLGFAIKRTPGFWSADGKTRAATSWLPNRLTFDGPAAHTQGDAPTDQAPIQKFMWWDARIDPPDRGRAFRYDVYPVVGTPASLRVLEADAGGCTVTLPAHVEGGVGTWFNRAVVSSQAFAKQVRALRLADGAAPSPDAARRLRTWLANDLEETFGLMLGADARRAVSAVYHLTDPLWAIPAFDAFGRAHGADALAIVYDAHETKRGSGEPPLPSPNQAAVEQLTGVATLAPRDKTRIMHDKFIVAGDEAGPARVLTGSANFTTEGITEQANVLHTFESAALAGLYNACARALASNPCVAETARLAPGWSEPVEVGTARVRVSFSPEPRGARTQIDTIVDAIRGARHSVVFCLFMPTDAALRDACFAAGDRGLMMFGLVNAISARGAQQADADRRDGKTLDAARLANLELYHRSRSNRDVIDAAYFSPATVPAGFEAELRLFPGEAPPPYPPVVVHHKFIVIDAEGANPIVYSGSANMSANSEHYNDENLLEIRDARVAGIYLAEFLRLYEHYRARALAIASRRGNGSGAGGAAGPHGGLALQPDSRWAKKYFVDASPEEKARIALAAPVAAR”, for which the protein production result is “failed”.

Consider “MSWLIHAGEGRQYQVAPPVSWSQSYAEARMTDIQRLDDQTVERIAAGEVVERPASVVKELVENAIDADASRVDVVVEAGGTDGIRVTDDGIGMDREAVKTAVEEHTTSKIRDIADLEGGVGTLGFRGEALHAIGAVSRLTIRTRPRGGDVGTELVLEGGDVTSVSPAGCPEGTTMAVEDLFYNVPARRKYLKQESTEFAHVNTVVASYALANPDVAVSLTHGDRETFSTTGQGDLRETVMSVYGREVAESMISVGAGSEATGSGDEMDSFPDGPLDGVHGLVSHPETNRAGREYLSTYVNGRYVRAGTVRDAVIDAYGTQIAPDRYPFAVLFLDVPAGDVDVNVHPRKMEVRFADDEGVREQVRTAVEDALLREGLLRSTAPRGRSAPEQTEITPESDGATDSGGERAAPNGRDAIDDATTSGQTDTTATENSAEAPAQEPDTAPTARPDGTQTETGNCESSDTAPSIQSADTKPSSETGRTDGTSGESGTGQTGGSVSGGDSDSERPGASATGQTAAERGERKFTGGQEQARLGDDPEATHESLPSMRILGQLADTYVVAETDDGLVLVDQHAADERVNYERLKAKFEGETTTQALANPVELGLTAREAEVFDRRSDALASLGFHTARTGERSVEVRTLPGVIADAAGPDIVRDVLGAFVAGDDEAAATVEAAADELLGDLACYPSVTGNTSLTEGSVRELLAALDDCENPYACPHGRPTVIHIDRQELEDRFERDYPGHGGRRR”, for which the protein production entry was “failed”.

With “MSYAKEMLDAIEAGQMETAKQLFTQVLAHDDDETQYNLAEELYALGFNGQAKRLYQGLLGRYPDQGDLATALADIAVSDGDTDAALNYLSRIQPGDPAYVQSLVSAADVYQTLGLYEVSEQKLLEAKRLAPDEPVVTFALGEFYFDWGHFAEAISAYNELLAAGTTELAGVNIEARLAASLAQTGQYEDAVAAYEDVGVDALDLNGRFELGGLYLQLDDPAKAITNLQAVIDSDPSYANAYLPLARAYEAQNQPDKALDTVQAGVMVDDTNPTLYALGGKLALSEDNVKLAETYLQKALAIDPEDQGNMLAWSNFLVQEERDQENVDFLDQIDRSGDVDPQIYWNMAKSYDRLENIKKARENYLLAFNRFQDSPDFLHDIIDFFQSTGARAELKAALVRYLKLVPTDDEMQARLDELNAETDLEHHHHHH”, the protein production result is recorded as “not failed”.

For “MSYEAIMLERNGAVGVLTFNRPEVLNAYNRTLAADIITGFNELVADKSVRAIVLTGAGKAFMAGADINMVNGWTKLGNAAKIKEDLRQLVNPNMIEDCPKPTIAAVNGLAFGMGCELAMACDFRIAAEKAQFGQPEVKLGIIPGAGGSQRLRELVGPTRALEMISTGDPIDAQEAYRIGLVNQVVPRDELMEAVNAFAGRLIDKGAVVLDICKKLVYEGGDLPLRGGIDYEQDQFCKILLTADAQEGTLAFLEKRKPVFNKG”, the protein production entry was “failed”.
